{
  "source": "the Human Domainome abundance scans (Beltran et al. 2025)",
  "note": "± gives the uncertainty stated by the source.",
  "data": [
    {"experiment": "abundance fitness (aPCA) (normalised: wild type 0, dead -1); higher = more abundant; growth selection in yeast, the domain comes from the species named", "details": "Homo sapiens", "values": [
      {"substance": "NEDD4-like E3 ubiquitin-protein ligase WWP2 Y491Q, O00308", "abundance fitness": "-0.01 ± 0.051"},
      {"substance": "NEDD4-like E3 ubiquitin-protein ligase WWP2 Y491R, O00308", "abundance fitness": "-0.001 ± 0.033"},
      {"substance": "NEDD4-like E3 ubiquitin-protein ligase WWP2 Y491S, O00308", "abundance fitness": "0.037 ± 0.038"},
      {"substance": "NEDD4-like E3 ubiquitin-protein ligase WWP2 Y491T, O00308", "abundance fitness": "0.039 ± 0.037"},
      {"substance": "NEDD4-like E3 ubiquitin-protein ligase WWP2 Y491V, O00308", "abundance fitness": "0 ± 0.038"},
      {"substance": "NEDD4-like E3 ubiquitin-protein ligase WWP2 Y491W, O00308", "abundance fitness": "-0.104 ± 0.054"},
      {"substance": "Transcription factor SOX-11 A77S, P35716", "abundance fitness": "0.01 ± 0.044"},
      {"substance": "Transcription factor SOX-11 A102Q, P35716", "abundance fitness": "-0.628 ± 0.44"},
      {"substance": "Transcription factor SOX-11 A111E, P35716", "abundance fitness": "-0.149 ± 0.094"},
      {"substance": "Transcription factor SOX-11 A111T, P35716", "abundance fitness": "0.039 ± 0.048"},
      {"substance": "Transcription factor SOX-11 D92N, P35716", "abundance fitness": "-0.18 ± 0.054"},
      {"substance": "Transcription factor SOX-11 D92T, P35716", "abundance fitness": "-0.223 ± 0.079"},
      {"substance": "Transcription factor SOX-11 D115N, P35716", "abundance fitness": "-0.193 ± 0.16"},
      {"substance": "Transcription factor SOX-11 E69K, P35716", "abundance fitness": "-0.57 ± 0.29"},
      {"substance": "Transcription factor SOX-11 E69V, P35716", "abundance fitness": "-0.401 ± 0.074"},
      {"substance": "Transcription factor SOX-11 E78N, P35716", "abundance fitness": "-0.727 ± 0.09"},
      {"substance": "Transcription factor SOX-11 E78V, P35716", "abundance fitness": "-0.615 ± 0.066"},
      {"substance": "Transcription factor SOX-11 E103S, P35716", "abundance fitness": "-0.684 ± 0.072"},
      {"substance": "Transcription factor SOX-11 I62D, P35716", "abundance fitness": "-0.203 ± 0.065"},
      {"substance": "Transcription factor SOX-11 I67L, P35716", "abundance fitness": "-0.178 ± 0.066"},
      {"substance": "Transcription factor SOX-11 I79L, P35716", "abundance fitness": "-0.225 ± 0.058"},
      {"substance": "Transcription factor SOX-11 I96Q, P35716", "abundance fitness": "0.03 ± 0.08"},
      {"substance": "Transcription factor SOX-11 I96R, P35716", "abundance fitness": "-0.209 ± 0.048"},
      {"substance": "Transcription factor SOX-11 I99V, P35716", "abundance fitness": "-0.094 ± 0.05"},
      {"substance": "Transcription factor SOX-11 I99Y, P35716", "abundance fitness": "-0.01 ± 0.053"},
      {"substance": "Transcription factor SOX-11 K50R, P35716", "abundance fitness": "-0.396 ± 0.13"},
      {"substance": "Transcription factor SOX-11 K85Q, P35716", "abundance fitness": "0.228 ± 0.13"},
      {"substance": "Transcription factor SOX-11 K85S, P35716", "abundance fitness": "0.026 ± 0.05"},
      {"substance": "Transcription factor SOX-11 K91S, P35716", "abundance fitness": "0.081 ± 0.044"},
      {"substance": "Transcription factor SOX-11 K91T, P35716", "abundance fitness": "0.151 ± 0.056"},
      {"substance": "Transcription factor SOX-11 K108Q, P35716", "abundance fitness": "-0.031 ± 0.13"},
      {"substance": "Transcription factor SOX-11 L90M, P35716", "abundance fitness": "0.343 ± 0.13"},
      {"substance": "Transcription factor SOX-11 L107K, P35716", "abundance fitness": "-0.218 ± 0.14"},
      {"substance": "Transcription factor SOX-11 M68A, P35716", "abundance fitness": "-0.247 ± 0.066"},
      {"substance": "Transcription factor SOX-11 M68L, P35716", "abundance fitness": "0.093 ± 0.059"},
      {"substance": "Transcription factor SOX-11 M74L, P35716", "abundance fitness": "-0.084 ± 0.056"},
      {"substance": "Transcription factor SOX-11 M89A, P35716", "abundance fitness": "0.098 ± 0.071"},
      {"substance": "Transcription factor SOX-11 M110L, P35716", "abundance fitness": "-0.068 ± 0.053"},
      {"substance": "Transcription factor SOX-11 Q70A, P35716", "abundance fitness": "-0.128 ± 0.065"},
      {"substance": "Transcription factor SOX-11 R65K, P35716", "abundance fitness": "-0.364 ± 0.34"},
      {"substance": "Transcription factor SOX-11 R82I, P35716", "abundance fitness": "0.406 ± 0.048"},
      {"substance": "Transcription factor SOX-11 R82M, P35716", "abundance fitness": "0.124 ± 0.12"},
      {"substance": "Transcription factor SOX-11 R86S, P35716", "abundance fitness": "-0.07 ± 0.046"},
      {"substance": "Transcription factor SOX-11 R100E, P35716", "abundance fitness": "0.218 ± 0.12"},
      {"substance": "Transcription factor SOX-11 S60A, P35716", "abundance fitness": "0.15 ± 0.097"},
      {"substance": "Transcription factor SOX-11 S71C, P35716", "abundance fitness": "-0.055 ± 0.052"},
      {"substance": "Transcription factor SOX-11 S93L, P35716", "abundance fitness": "-0.568 ± 0.099"}
    ]}
  ]
}
